Biological target: T1, PKC-ε (Homo sapiens, UniProt Q02156)
T1 construct: endogenous in cells; host or cells: MCF7
T1 sequence (Q02156 1-737): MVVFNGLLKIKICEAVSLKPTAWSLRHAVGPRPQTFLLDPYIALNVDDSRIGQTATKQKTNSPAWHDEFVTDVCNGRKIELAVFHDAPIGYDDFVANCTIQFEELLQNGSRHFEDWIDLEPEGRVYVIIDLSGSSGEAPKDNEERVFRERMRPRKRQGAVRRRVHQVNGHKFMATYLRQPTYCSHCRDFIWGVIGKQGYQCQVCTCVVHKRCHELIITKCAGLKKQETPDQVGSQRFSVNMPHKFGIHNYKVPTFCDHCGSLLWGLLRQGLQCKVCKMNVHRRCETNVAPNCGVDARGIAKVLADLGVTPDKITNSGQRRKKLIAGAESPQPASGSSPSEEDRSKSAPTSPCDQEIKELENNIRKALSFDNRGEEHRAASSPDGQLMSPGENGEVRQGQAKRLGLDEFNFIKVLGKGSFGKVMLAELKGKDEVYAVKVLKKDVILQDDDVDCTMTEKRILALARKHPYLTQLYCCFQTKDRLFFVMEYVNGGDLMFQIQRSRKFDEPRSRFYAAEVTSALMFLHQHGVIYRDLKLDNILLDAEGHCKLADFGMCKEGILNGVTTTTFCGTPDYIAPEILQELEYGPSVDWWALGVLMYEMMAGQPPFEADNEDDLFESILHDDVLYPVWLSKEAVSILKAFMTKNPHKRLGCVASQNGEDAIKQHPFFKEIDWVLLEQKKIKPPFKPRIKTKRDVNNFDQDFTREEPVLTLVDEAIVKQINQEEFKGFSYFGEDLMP
Test: Nuclear localization of PKC-ε (Fn/c, immunofluorescence), specificity
Format: cell-based
Settings: MCF7 breast cancer cell line; FIG. 1D
Text: FIG. 1 is a graphical, schematic and photographic representation showing that PKC-θ can be targeted for therapeutic intervention. A) Depicts the strength of binding of recombinant purified His6-PKC-θ to increasing concentrations of different subunits and subunit combinations (α2, α2β1, and β1) of the importin α/β heterodimer nuclear transport receptor using an AlphaScreen® binding assay as described in Wagstaff et al. (2011. Journal of Biomolecular Screening 16 (2):192-200). B-C) Depicts protein structure of PKC-θ indicating binding locations for the PKC-θ peptide inhibitor, PKCθi (RKEIDPPFRPKVK), including the nuclear localization sequence (NLS) of PKC-θ. D) The specificity of PKCθi was examined on cells treated with this peptide inhibitor. Cells were screened with primary antibodies to PKC-θ (T538p), PKC-β2, PKC-β1, PKC-α, PKC-ε and PKC-γ. The nuclear to cytoplasmic fluorescence ratio (Fn/c) using the equation: Fn/c=(Fn−Fb)/(Fc−Fb), where Fn is nuclear fluorescence, Fc is cytoplasmic fluorescence, and Fb is background fluorescence was used to determine the impact on nuclear translocation/localization. […] EC^50 of inhibitors calculated using GraphPad PRISM software. F) The PKC-θ kinase activity was measured using the PKC kinase activity kit from ENZO life sciences and recombinant PKC-θ; C27 is an inhibitor of PKC-θ kinase activity, which is disclosed in Jimenez et al. (2013. […]

RKEIDPPFRPKVK [PKCθi]
nuclear localization of PKC-ε: no effect

From patent US20200282010A1, “IMMUNOGENIC COMPOSITIONS AND USES THEREFOR” (Epiaxis Therapeutics Pty Ltd, priority 2017, published 2020)
